Measured values as given in patent US10654896B2, “FoxP3-binding peptides and uses thereof” (FUNDACIÓN PARA LA INVESTIGACIÓN MÉDICA APLICADA, priority 2016, dated 2020).
Where a SMILES comes first, the peptide text is derived from it. Where no end group is shown, it is not given here. [ ]: non-standard residue; d: D form.

How the values were obtained:
human FOXP3 (FOXP3-6His) = biological target: T1, human FOXP3 (FOXP3-6His) (Homo sapiens, UniProt Q9BZS1); experiment: Peptide binding to FOXP3 by surface plasmon resonance (SPR); settings: for Binding to Foxp3 Ratio binding Peptide/p60 (fold change): peptides 1-20 μM, ratio to p60 (SEQ ID NO: 1)
T1 construct: 6xHis (C); made in house; host or cells: E. coli BL21 (DE3)
T1 sequence (Q9BZS1 1-431): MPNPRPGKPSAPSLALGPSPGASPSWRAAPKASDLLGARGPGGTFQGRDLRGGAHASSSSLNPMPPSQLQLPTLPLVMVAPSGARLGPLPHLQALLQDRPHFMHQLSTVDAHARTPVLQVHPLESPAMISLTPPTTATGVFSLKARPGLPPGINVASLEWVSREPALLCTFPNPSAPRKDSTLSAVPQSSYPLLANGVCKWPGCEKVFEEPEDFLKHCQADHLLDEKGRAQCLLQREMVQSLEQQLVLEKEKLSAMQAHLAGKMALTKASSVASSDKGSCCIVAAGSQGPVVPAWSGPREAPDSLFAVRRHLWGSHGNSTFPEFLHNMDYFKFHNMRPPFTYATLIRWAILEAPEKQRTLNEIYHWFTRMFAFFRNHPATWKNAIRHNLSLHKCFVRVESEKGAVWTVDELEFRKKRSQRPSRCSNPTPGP
Source text: Plasmid pET20b FOXP3-His was generated to produce the human FOXP3 tagged with 6 histidines at the C terminus of the protein. Briefly, plasmid pDEST15-FOXP3 (provided by Dr. Casal, Madrid, Spain) was used as template to amplify FOXP3 by PCR using the primers Upper FOXP3 Ndel catatgcccaaccccaggc (SEQ ID NO: 55) and Lower FOXP3 […] (SEQ ID NO: 56). The resulting fragment was subcloned in pET20b at Ndel and NotI sites. pET45b His-Runx1 was obtained by PCR of activated human CD4 T cells obtained from healthy volunteers (after the signature of an informed consent) using the primers Upper Runx1 atgcgtatccccgtagatg (SEQ ID NO: 57) and Lower Runx1 […] (SEQ ID NO: 58) and the fragment was cloned in pcDNA3.1. Then, pET45b and pcDNA3.1-Runx1 were digested with BamHI and NotI and ligated to obtain pET45b-Runx1. Plasmids were used to transform BL21 cells (DE3; Novagen, Schwalbach, Germany) for the expression of the recombinant protein. The transformed BL21 cells were grown in LB medium at 37° C. (1 liter of final culture medium) (with ampicilin 0.1 mg/ml). Once the OD of the culture was between 0.5 and 1.0, IPTG (0.4 mM, final concentration) was added. Bacteria were then cultured overnight in agitation and centrifuged for 10 min at 8000 rpm. Cell pellet was then resuspended in 4 ml Tris-HCl 0.1 M and frozen at −80° C. Cell pellet was then thawed and incubated with lisozyme (25 KU) and a protease inhibitor cocktail for 15 min at 30° C. before cell lysis induced with a French-press. The resultant pool was then centrifuged during 20 min at 11.000 rpm). The recombinant protein was purified from the soluble fraction of French-press cell extracts by affinity chromatography (Histrap, Pharmacia) following manufacturer's instructions and using an FPLC platform (AKTA, Pharmacia). Plasmid pDEST15-FOXP3 encoding the fusion protein GST-FOXP3 (GST fused to the isoform A from human FOXP3 gene), was transformed into BL21 cells for the expression of the recombinant protein. GST-FOXP3 protein was purified from the soluble fraction of cell extracts obtained, as described above, by affinity chromatography (GSTrap; Amersham, Piscataway, N.J.) using a fast protein liquid chromatography platform (AKTA; Amersham) following manufacturer's instructions. The eluted proteins were desalted using Hitrap desalting columns (Pharmacia) and analyzed by SDS-PAGE using Coomassie blue (Bio-Safe Coomassie reagent; Bio-Rad, Hercules, Calif.) and by Western blot.
Screening of peptide binding to FOXP3 was performed by surface plasmon resonance (SPR) using ProteOn XPR36 (Bio-Rad, Hercules Calif., USA) optical biosensor. Recombinant protein FOXP3-6His was produced and purified from E. coli as disclosed in previous section and was immobilized covalently onto a GLM sensor chip (176-5012, Bio-Rad) using sulfo-NHS and EDC (Bio-Rad) coupling reagents and the manufacturer's instructions. After protein immobilization, chip surface was treated with ethanolamine to deactivate the excess of reactive esters.
Individual solutions of the peptides to be tested (1-20 μM) were injected by triplicate in running buffer (Phosphate buffered saline, 0.005% (v/v) Tween 20, pH 7.4) at a flow of 30 μl/min. The interspot signal (obtained in the chip surface not immobilized with protein) was used as reference. The results are summarized in Table 6 below as the ratio Peptide of the invention/p60.

[1] = Human liver microsomal stability; type: in vitro ADME; settings: human liver microsomes
Experimental: (§1) The data collected were analyzed to calculate a half-life (t1/2, min) for tested peptides at a final concentration of 1 μM. Briefly, 5 μL of stock solution of tested peptide (10 mM) were diluted in 495 μL of 1:1 Methanol/Water (final concentration of 100 μM, 50% MeOH). Then, 50 μL of this intermediate solution were diluted in 450 μL of 100 mM potassium phosphate buffer to a concentration of 10 μM (working solution, 5% MeOH). The NADPH regenerating system contains β-Nicotinamide adenine dinucleotide phosphate (Sigma, Cat. # N0505), Isocitric acid (Sigma, Cat. #11252) and Isocitric dehydrogenase (Sigma, Cat. #12002) at a final concentration of 1 unit/mL at incubation.
(§2) Human liver microsomes were obtained from BD Gentest (Cat. #452117) and mouse liver microsomes from Xenotech (Cat. # M1000), to a final concentration of 0.7 mg protein/mL. A volume of 10 μL of peptide solution and 80 μL of microsome solution were added to a 96-well plate and incubated for 10 min at 37° C. The reaction was started by the addition of 10 μL of NADPH regenerating system and stopped by the addition of 300 μL of stop solution (ACN at 4° C., including 100 ng/mL Tolbutamide and 100 ng/mL of Labetalol as internal standard) at different incubation times (0, 5, 10, 20, 30 and 60 min). Concentrations of test compound were quantified by LC-MS/MS methodologies (Shimadzu LC 20-AD/API4000) using peak area ratio of analyte/internal standard and the percent loss of parent compound was calculated under each time point to determine the half-life.

[2] = Mouse liver microsomal stability; type: in vitro ADME; settings: mouse liver microsomes
Experimental: as §1, §2

[3] = 20 min, read-out: % Remaining after 20 min
[4] = 60 min, read-out: % Remaining after 60 min

| Compound | Binding to Foxp3 Ratio binding Peptide/p60 (fold change) (human FOXP3 (FOXP3-6His)) | also measured |
| --- | --- | --- |
| 6 (R[dA]FQSFRKMWPFFAM) [compound 6] | 3.3 | – |
| 7 (RSFQSFRKMWPFFAM) [compound 7] | 1.4 | – |
| 8 (RYFQSFRKMWPFFAM) [compound 8] | 1.4 | – |
| 11 (RNFQSFRKMWPFFAM) [compound 11] | 1.4 | – |
| 12 (RKFQSFRKMWPFFAM) [compound 12] | 2.2 | – |
| 16 (RDWQSFRKMWPFFAM) [compound 16] | 3.7 | – |
| 17 (RDYQSFRKMWPFFAM) [compound 17] | 3.3 | – |
| 18 (RDLQSFRKMWPFFAM) [compound 18] | 1.9 | – |
| 20 (RDFQRFRKMWPFFAM) [compound 20] | 3.7 | – |
| 21 (RDFQNFRKMWPFFAM) [compound 21] | 3.2 | – |
| 22 (RDFQWFRKMWPFFAM) [compound 22] | 2.4 | – |
| 23 (RDFQEFRKMWPFFAM) [compound 23] | 1.3 | – |
| 24 (RDFQYFRKMWPFFAM) [compound 24] | 4.6 | – |
| 25 (RDFQKFRKMWPFFAM) [compound 25] | 4.0 | – |
| 28 (RDFQSFRHMWPFFAM) [compound 28] | 2.6 | – |
| 29 (RDFQSFRRMWPFFAM) [compound 29] | 1.4 | – |
| 31 (RDFQSFRKMWRFFAM) [compound 31] | 2.8 | – |

| Compound | Binding to Foxp3 Ratio binding Peptide/p60 (fold change) (human FOXP3 (FOXP3-6His)) | also measured |
| --- | --- | --- |
| 32 (RDFQSFRKMWNFFAM) [compound 32] | 1.4 | – |
| 33 (RDFQSFRKMWVFFAM) [compound 33] | 1.3 | – |
| 35 (RDFQSFRKMWYFFAM) [compound 35] | 1.3 | – |
| 37 (RDFQSFRKMWKFFAM) [compound 37] | 4.1 | – |
| 38 (RDFQSFRKMWAFFA[dM]-NH2; not fully specified (N-terminus)) [compound 38] | 1.1 | – |
| 39 (RDFQ[dA]FRKMWPFFAM-NH2; not fully specified (N-terminus)) [compound 39] | 3.3 | – |
| 40 (RDFQSFRKMW[dA]FFAM-NH2; not fully specified (N-terminus)) [compound 40] | 2.2 | – |
| 42 (H-RAFQAFRKMWPFFAM-OH) [compound 42] | 4.1 | – |
| 43 (R[dA]FQ[dA]FRKMWPFFAM-NH2; not fully specified (N-terminus)) [compound 43] | 4.9 | – |
| 44 (RAFQSFRKMWAFFAM-NH2; not fully specified (N-terminus)) [compound 44] | 3.0 | – |
| 49 (cyclo(RDFQSFRKMWPFFAM); also: R1 and R2 form a linker birradical which is -C(=O)-) [compound 49] | 5.0 | – |
| CSCC[C@H](NC(=O)[C@H](C)NC(=O)[C@H](Cc1ccccc1)NC(=O)[C@H](Cc1ccccc1)NC(=O)[C@@H]1CCCN1C(=O)[C@H](Cc1c[nH]c2ccccc12)NC(=O)[C@H](CCSC)NC(=O)[C@H](CCCCN)NC(=O)[C@H](CCCNC(=N)N)NC(=O)[C@H](Cc1ccccc1)NC(=O)[C@H](CO)NC(=O)[C@H](CCC(N)=O)NC(=O)[C@H](Cc1ccccc1)NC(=O)[C@@H](CC(=O)O)NC(=O)[C@H](CCCNC(=N)N)NC(=O)CNC(C)=O)C(N)=O [compound 4] (Ac-GR[dD]FQSFRKMWPFFAM-NH2; C-terminus assumed) | 4.2 | – |
| CSCC[C@@H]1NC(=O)[C@H](C)NC(=O)[C@H](Cc2ccccc2)NC(=O)[C@H](Cc2ccccc2)NC(=O)[C@@H]2CCCN2C(=O)[C@H](Cc2c[nH]c3ccccc23)NC(=O)[C@H](CCSC)NC(=O)[C@H](CCCCN)NC(=O)[C@H](CCCNC(=N)N)NC(=O)[C@H](Cc2ccccc2)NC(=O)[C@H](C)NC(=O)[C@H](CCC(N)=O)NC(=O)[C@H](Cc2ccccc2)NC(=O)[C@@H](C)NC(=O)[C@H](CCCNC(=N)N)NC1=O [compound 51] (cyclo(R[dA]FQAFRKMWPFFAM)) | – | remaining at 20 min, 1 μM [1, 3]: 48.7%; remaining at 1 h, 1 μM [1, 4]: 46.1%; half-life ([1]; peptide 1 μM, read-out: t1/2): 1.03 h; remaining at 20 min, 1 μM [2, 3]: 62.7%; remaining at 1 h, 1 μM [2, 4]: 47.7%; half-life ([2]; peptide 1 μM): 1.06 h |
| Ac-GRAFQSFRKMWPFFAM-NH2 (C-terminus assumed) [compound 13] | 3.2 | – |
| RAFQAFRKMWPFFAM [SEQ ID NO: 42] (H-RAFQAFRKMWPFFAM-OH) | – | increase in the binding to FoxP3 with respect to p60 (SEQ ID NO: 1) (human FOXP3 (FOXP3-6His)): about 400% |
| RDFQSFRKMWPFFAM (cyclo(RDFQSFRKMWPFFAM); also: R1 and R2 form a linker birradical which is -C(=O)-) [SEQ ID NO: 49, head-to-tail cyclic peptide] | – | increase in the binding to FoxP3 with respect to p60 (SEQ ID NO: 1) (human FOXP3 (FOXP3-6His)): about 500% |
